# In publication PMC2731897:
# T1: GroEL1 (untagged) (Mycobacterium tuberculosis, UniProt P9WPE9 1-539)
# T1 sequence: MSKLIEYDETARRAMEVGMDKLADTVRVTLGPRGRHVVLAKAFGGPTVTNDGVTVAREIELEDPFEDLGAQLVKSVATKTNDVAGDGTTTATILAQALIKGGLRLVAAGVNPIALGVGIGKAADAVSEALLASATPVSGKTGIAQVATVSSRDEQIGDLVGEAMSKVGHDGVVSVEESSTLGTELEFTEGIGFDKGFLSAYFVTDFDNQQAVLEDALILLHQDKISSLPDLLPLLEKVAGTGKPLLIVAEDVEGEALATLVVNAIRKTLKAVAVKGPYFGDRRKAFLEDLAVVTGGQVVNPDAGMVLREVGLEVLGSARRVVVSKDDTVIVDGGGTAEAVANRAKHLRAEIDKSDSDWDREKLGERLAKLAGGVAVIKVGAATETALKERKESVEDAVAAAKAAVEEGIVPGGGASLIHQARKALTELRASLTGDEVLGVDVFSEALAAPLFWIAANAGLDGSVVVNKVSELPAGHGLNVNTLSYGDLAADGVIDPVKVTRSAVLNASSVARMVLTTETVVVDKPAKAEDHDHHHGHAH
# T2: GroEL1 (untagged) (Mycobacterium tuberculosis) (UniProt P9WPE9)
# T2 sequence: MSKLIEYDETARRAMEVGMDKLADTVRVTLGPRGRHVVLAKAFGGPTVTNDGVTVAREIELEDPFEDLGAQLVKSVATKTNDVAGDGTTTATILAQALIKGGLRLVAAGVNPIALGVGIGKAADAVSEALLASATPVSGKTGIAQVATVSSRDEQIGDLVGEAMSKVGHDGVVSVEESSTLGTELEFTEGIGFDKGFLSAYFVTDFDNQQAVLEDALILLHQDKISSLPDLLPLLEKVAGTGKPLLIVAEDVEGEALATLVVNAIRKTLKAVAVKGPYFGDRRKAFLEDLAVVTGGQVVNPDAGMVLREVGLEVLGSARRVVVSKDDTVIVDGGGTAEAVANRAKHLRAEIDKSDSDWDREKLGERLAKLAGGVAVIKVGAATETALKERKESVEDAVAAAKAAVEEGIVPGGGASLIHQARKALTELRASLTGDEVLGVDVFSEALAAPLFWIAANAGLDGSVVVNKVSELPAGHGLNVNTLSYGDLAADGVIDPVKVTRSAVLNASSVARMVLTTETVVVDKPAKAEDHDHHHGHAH
# Biological target: T1, GroEL1 (untagged)
# Test: EMSA
row,Molecule,Kd
1,CIRCE2FR (dsDNA) DNA 1: TTAGCCGATTGCCATCTAGCACTCTATACATGAGAGTGCTAGCACTCAAGGGCGCCCCCT DNA 2: AGGGGGCGCCCTTGAGTGCTAGCACTCTCATGTATAGAGTGCTAGATGGCAATCGGCTAA,143 nM

# Biological target: T1, GroEL1 (untagged)
# Test: EMSA
# Remark: another data set of the same source
row,Molecule,binding result
1,MutO7 ss (ssDNA) DNA: TTAGCCGATTGCCATCACGCACTACGTAGTGTCTATGTATCGATCTCAAGGGCGCCCCCT,binds
2,MutO2 ss (ssDNA) DNA: ATACTTAGCCGATTGCCATCTAGCACTCTAGAGTGCTAGCACTCAAGGGCGCCCCCTATG,binds
3,MutO3 ss (ssDNA) DNA: TTAGCCGATTGCCATTCCTGTACAAATACATGAGAGTGCTAGCACTCAAGGGCGCCCCCT,binds
4,MutO4 ss (ssDNA) DNA: GTGCACTTAGCCGATTGCCATTCTATACATGAGACACTCAAGGGCGCCCCCTCTAGCTAG,binds
5,MutO5 ss (ssDNA) DNA: TTAGCCGATTGCCATCTAGCACTCTGCGCCCCCTATACATGAGAGTGCTAGCACTCAAGG,binds
6,MutO6 ss (ssDNA) DNA: TTAGCCGATTGCCATCTAGCACTCTATACATGTTGGAACGGACACTCAAGGGCGCCCCCT,binds
7,CIRCE2F ss (ssDNA) DNA: TTAGCCGATTGCCATCTAGCACTCTATACATGAGAGTGCTAGCACTCAAGGGCGCCCCCT,binds

# Biological target: T2, GroEL1 (untagged) (Mycobacterium tuberculosis)
# Test: EMSA
row,Molecule,binding
1,"TATATAGTCGACCCAGGTGATTCGGCATTCGTCCGCGCCCTCGCGCCGTCGTCGCGGGTGCCGACGCAGGGGTTAGCCGATTGCCATCTAGCACTCTATACATGAGAGTGCTAGCACTCAAGGGCGCCCCCTTGCTTCCTGGTTGCCAGCGTGTCTCTAGATATATA (double strand) [groES upstream region, 140 bp]",binds
